Target: T1, Methyl-coenzyme M reductase (MCR) subunit α (Methanothermobacter marburgensis …, UniProt P11558 1-550)
T1 sequence (looked up): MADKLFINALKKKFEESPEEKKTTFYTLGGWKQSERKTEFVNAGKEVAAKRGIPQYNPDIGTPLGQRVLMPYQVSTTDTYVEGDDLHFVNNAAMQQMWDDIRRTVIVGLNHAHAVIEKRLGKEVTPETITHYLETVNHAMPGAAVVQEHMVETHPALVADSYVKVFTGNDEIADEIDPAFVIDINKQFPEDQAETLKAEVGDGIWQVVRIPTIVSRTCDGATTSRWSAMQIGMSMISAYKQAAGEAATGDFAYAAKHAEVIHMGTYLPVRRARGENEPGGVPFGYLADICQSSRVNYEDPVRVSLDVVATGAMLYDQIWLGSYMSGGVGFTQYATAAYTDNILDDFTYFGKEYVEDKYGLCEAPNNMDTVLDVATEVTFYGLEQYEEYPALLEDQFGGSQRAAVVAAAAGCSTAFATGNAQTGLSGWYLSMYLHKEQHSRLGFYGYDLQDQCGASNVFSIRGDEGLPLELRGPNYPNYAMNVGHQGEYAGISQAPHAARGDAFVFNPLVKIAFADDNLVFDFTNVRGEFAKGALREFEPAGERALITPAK
Assay: crystal structure

binding result: binds
B1: Methyl-coenzyme M reductase (MCR) subunit β (natural protein, UniProt P11560 1-443, looked up)
chain: MAKFEDKVDLYDDRGNLVEEQVPLEALSPLRNPAIKSIVQGIKRTVAVNLEGIENALKTAKVGGPACKIMGRELDLDIVGNAESIAAAAKEMIQVTEDDDTNVELLGGGKRALVQVPSARFDVAAEYSAAPLVTATAFVQAIINEFDVSMYDANMVKAAVLGRYPQSVEYMGANIATMLDIPQKLEGPGYALRNIMVNHVVAATLKNTLQAAALSTILEQTAMFEMGDAVGAFERMHLLGLAYQGMNADNLVFDLVKANGKEGTVGSVIADLVERALEDGVIKVEKELTDYKVYGTDDLAMWNAYAAAGLMAATMVNQGAARAAQGVSSTLLYYNDLIEFETGLPSVDFGKVEGTAVGFSFFSHSIYGGGGPGIFNGNHIVTRHSKGFAIPCVAAAMALDAGTQMFSPEATSGLIKEVFSQVDEFREPLKYVVEAAAEIKNEI

Reference: PMC3098740 (Biochemistry, 2010)
